This is an account of results in patent US20230340152A1 (published 2023).

In test [1] the target is T1, Human CD73 V144K+K180A, His-tagged (human, UniProt P21589 27-549).
T1 chain: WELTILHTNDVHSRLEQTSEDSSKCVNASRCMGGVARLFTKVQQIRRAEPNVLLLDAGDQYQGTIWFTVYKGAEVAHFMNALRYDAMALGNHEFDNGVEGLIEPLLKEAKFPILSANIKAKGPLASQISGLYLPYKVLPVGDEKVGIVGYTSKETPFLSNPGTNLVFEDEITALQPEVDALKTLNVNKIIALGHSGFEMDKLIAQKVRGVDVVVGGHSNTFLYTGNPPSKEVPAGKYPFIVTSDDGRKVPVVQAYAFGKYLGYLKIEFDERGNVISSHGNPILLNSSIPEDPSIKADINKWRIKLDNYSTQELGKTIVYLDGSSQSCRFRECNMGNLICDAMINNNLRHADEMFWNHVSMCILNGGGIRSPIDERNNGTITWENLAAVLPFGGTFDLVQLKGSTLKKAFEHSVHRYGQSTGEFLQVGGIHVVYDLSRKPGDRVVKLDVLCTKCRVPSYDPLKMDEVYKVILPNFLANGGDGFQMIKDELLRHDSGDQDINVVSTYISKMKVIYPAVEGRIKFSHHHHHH
Kind of test: SPR (ProteOn), CD73 variant immobilized on HTG chip. The protocol:
(§1) Binding of MEDI9447 to wild-type and mutant CD73 proteins was measured by surface plasmon resonance (SPR) using a ProteOn instrument (BioRad). CD73 crude cell supernatant protein samples were diluted to 3 µg/ml in PBS, 0.005% Tween-20, pH 7.4 (BioRad) and immobilized to ~400 RU on a HTG tris-NTA sensor chip (BioRad) pre-activated with 10 mM NiSO₄, 10 mM MES, pH 6.0 (BioRad). An equivalently diluted crude cell supernatant sample from non-transfected cells was included as a reference channel control. Sensorgrams were recorded by flowing two-fold dilutions of MEDI9447 prepared in PBS, 0.005% Tween-20, pH 7.4, ranging from 5 nM to 0.31 nM. […] Antibody binding was measured at a flow rate of 100 µL/min with a 3 min association phase and 20 min dissociation phase. The sensor chip surface was regenerated between each run by an 800 s injection of 300 mM EDTA, pH 8.5 (BioRad) at a flow rate of 30 µL/min. Binding kinetics were analyzed using the ProteOn data analysis software. Double referencing was performed and, unless noted otherwise, a 1:1 Langmuir binding model was utilized to fit the data. Some CD73 variants containing mutations within the amino acid region 171-188 fit poorly to a 1:1 model (i.e., Chi² values >10% of Rmax). Where noted, these variants were fit with a heterogenous antigen (2:1) model. […] Due to the assay format (antigen immobilized) and the dimeric state of CD73, KD values may be exaggerated due to avidity effects. However, it is not anticipated that this impacts ranking of MEDI9447 binding to the different CD73 variants.

The target of test [2] is T2, Human CD73 V144K, His-tagged (human, UniProt P21589 27-549).
T2 sequence: T1 chain with A180K
Described as above. The protocol:
as §1

Test [3] has as its target T3, Human CD73 V144K+N185G, His-tagged (human, UniProt P21589 27-549).
T3 chain: T1 chain with A180K, N185G
Described as above. As for the experimental part:
as §1

Test [4] addresses T4, Murine CD73 on cells (4T1, Jurkat mCD73 knock-in) (murine, UniProt Q61503 29-551).
T4 sequence (looked up): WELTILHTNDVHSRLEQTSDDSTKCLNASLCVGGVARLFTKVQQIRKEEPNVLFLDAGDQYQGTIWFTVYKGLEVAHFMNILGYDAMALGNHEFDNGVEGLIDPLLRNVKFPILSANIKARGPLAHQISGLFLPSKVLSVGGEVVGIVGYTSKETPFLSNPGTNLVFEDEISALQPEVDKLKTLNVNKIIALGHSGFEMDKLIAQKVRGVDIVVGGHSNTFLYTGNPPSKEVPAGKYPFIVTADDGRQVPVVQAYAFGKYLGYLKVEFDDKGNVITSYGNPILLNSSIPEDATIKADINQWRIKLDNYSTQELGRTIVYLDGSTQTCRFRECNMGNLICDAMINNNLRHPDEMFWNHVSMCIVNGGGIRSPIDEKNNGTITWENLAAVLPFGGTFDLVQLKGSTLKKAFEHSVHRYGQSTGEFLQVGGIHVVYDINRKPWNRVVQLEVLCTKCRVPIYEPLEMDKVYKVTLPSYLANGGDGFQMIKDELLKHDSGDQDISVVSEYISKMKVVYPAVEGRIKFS
Kind of test: cell-based or functional assay.

Residue numbers refer to the chain shown, from its start. Names may count otherwise.

B1: MEDI9447 (antibody, human IgG1, lambda, V domains shown)
VH: EVQLLESGGGLVQPGGSLRLSCAASGFTFSSYAYSWVRQAPGKGLEWVSAISGSGGRTYYADSVKGRFTISRDNSKNTLYLQMNSLRAEDTAVYYCARLGYGRVDEWGRGTLVTVSS
VL: QSVLTQPPSASGTPGQRVTISCSGSLSNIGRNPVNWYQQLPGTAPKLLIYLDNLRLSGVPDRFSGSKSGTSASLAISGLQSEDEADYYCATWDDSHPGWTFGGGTKLTVLG
notes: Human IgG1-TM (L234F, L235E, P331S), lambda light chain; also called clone 10.3 antibody; 73combo3
As for B1, in test [1], the off-rate constant (koff) (commonly a measure of how fast the partners let go of each other) was determined as 0.00425 s⁻¹ and the kon (usually the rate constant with which the complex forms) came out at 1.58e+06 M⁻¹ s⁻¹. In test [2], this molecule gave a koff of 9.18e-05 s⁻¹ and a kon of 1.13e+06 M⁻¹ s⁻¹. For the same molecule, the binding result in test [3] is on record as “no binding”. Further, in test [4], the “FabZAP internalization, EC50, 4T1” value turned out to be 18.5 pM.
